Data as given in publication PMC6987092, “Characterization and diversity of the complete set of GH family 3 enzymes from Rhodothermus marinus DSM 4253” (Scientific Reports, 2020).

B1: RmNag3 (Rhodothermus marinus DSM 4252) (protein)
chain: HRSELDTAPPDRTRPGAWTETQLRTLTLAQQIGQLFAVRARGVFQSVDDPDYRELVRLVEQFQVGGVIFFQGDPYSQAMLANELQRRSRLPLLIAQDTEWGVAMRVRRTTSFPRAMAIGATGNPDYAYAVGYVTAREARALGVHQLYAPVADVNNNPMNPIINVRAFGEDPLQVATMVRAFVRGVQDAGAIATAKHFPGHGDTSIDSHSDLPVLRFDRKRLDTLELVPFRAAIKAGVQSIMTGHLALPRLDPTPNLPASLSRRITHELLREELGFDGLVVTDALEMQGVTKHFGVGEAAVRALEAGADMLLLSEDVEAARSAILQAVAQGRLSRARIEASVRRILLAKERLGLHRERLVDLNAIPYVVGIAPHQALSQTIARASLTLLRNEGNLLPLPDVPATPRQLQVIILSDSDDPATGRFFVQTLREIAPDDRIASRLLDVRSHPDDYRAALEAAARADVVLVPAYLFVRSGTGRIRLPERQRTFLDALIAQGRPVVLIAFGNPYLIMDLQRPPAVYLAAYGGSESTQRAAVQAIFGQAPFTGRLPITIPGHFQRGDGLQLEQVAPRLAYPEEVGMSTQRLYRVDSLLRAAIADSAFPGAAVAIGRGPAIVWLKGYGHFTYTSDQRVTPSSVFDLASLTKVVVTTTAAMQLYEAGKLDLDAPVVRYLPEFGQNGKERVTIRQLLSHTAGLAPFHPFHRMGITTAEAVRQAILSDSLIYEPGTQSRYSDLGMIVLGWVIERITGQPLDRYAAEHIFRPLGMRHTGFRPVGRPDTTVVPTEIDTIFRHRLIQGEVHDETAWILGGVAGHAGLFSTAEDLARFAYMLVNEGRIGGRPFLKPETIRLFTTPVDPERAGTRALGWDTRSREGYSSAGRLFGSRSFGHTGFTGTSIWIDPDQQLFVILLTNRVYPTRENRKHLAVRARLADLAYEALIGPPTLNLNALLP
notes: recombinant in E. coli BL21 C43 (pJOE3075), signal peptide removed, C-terminal His-tag, includes beta-lactamase domain; locus tag is that of the type strain DSM 4252T homolog, gene cloned from DSM 4253
B2: RmBgl3B (Rhodothermus marinus DSM 4252) (protein)
chain: QSSRVDSLLAAMTLAEKISLLHGAIDPTGEAGAGYVPGVPRLGIPAMRLTDGPAGIRTRHPATALPAPVALAASFDPELAYRYGHVMGIEGRARRHEVLLSPMVNIVRVPEAGRNFETFSEDPLLSAEMVAAEVRGIQDAGMMATVKHYVANNFENDRMRVNVVVDERTLREIYLPGFEAAIKAGAAAVMCAYNRVNGPYACDNEMLLTDILRDEWGFEGWVMTDWFAGHSLESLVRGLDQEMPGYTIPFSSPDMPLAPAVFADSLLAAVESGRIDEAYVDRAVRRILVQMEQFGLLDGESTPPEINIEAHAAVAREVAEAGAVLLRNENQTLPLSERDLQHLVVIGPTATRPLIGGGGSSRVQPFRTTSTLAALQELAGPQAQIRYVPGIDLDGMPVPSSALRTPDGQPGLLRQGADGTTQVDAQLDFTGERALPPGSQWTWTGTLTAPTAGVYELKLQTAGGVGTLSIDGQPVLRTGMFFSDASLIPTADSLENATYRIELQAGQQLSLTVQISGQVPSLPFLPAGQNPVQVRLAWVTPERRAAFLEEAAEAARAAHAAIVFVYEEGTEGRDRETLALRPDQDALVEAVAAANPRTTVVMNVGAPTLMPWAERVGAILLMWYPGQEGGWATADVLLGRANPAGRLPVTFPRRAEDAPTASPERYPGVDLTARYDEGIFVGYRWYDAQQIEPLFPFGHGLSYTTFAYENLRVEPDGDGFVVRFVVRNTGDRAGSDVPQVYLGPPENPPVPMAVRQLVGFRRVTLAPGEAQEVTVRIDGRALSYWSVEDHAWVKATGRRTLYVGASARDLRLQTEIDVQ
notes: recombinant in E. coli BL21 C43 (pET-21b(+)), signal peptide removed, C-terminal His-tag; locus tag is that of the type strain DSM 4252T homolog, gene cloned from DSM 4253
B3: RmBgl3A (Rhodothermus marinus DSM 4252) (protein)
chain: MRTLRLLTLSLLWSGWLLPAIAQVDRAREDSLIEALLARMTLEEKLGQLTLYNGGMAETGPVVREGEPDAIRRGRVGAVMNFFGAEAVCAMQRQAVEESRLGIPLLFALDVIHGFRTIFPVPLAEAATFDPALVEQAARVAAGEASAVGLNWTFAPMVDIARDARWGRIVEGSGEDPYLGAVMAAARVRGFQGRDLRDPTTILATAKHFAAYGAAEAGRDYNTVDVSERTLREVYLPPFEAAVRAGALSIMSAFNEIGGVPATADRWLLTDVLRHEWGFEGLVVSDYTSVWELLFHGIAADSAEVGRKALEAGVDMDMVSGIYVRKLAEEVRAGRLSEAVVDEAVRRVLRVKYRLGLFEDPYRYCRDASREQVLLSPAHRRLAREVARKAIVLLKNEGELLPLADTLQRVAVIGALANDSASVLGPWAAAGRPEDAVTILEGIRAALPGATVRYAPGYAEVPSGSFQEMVAAALSPDTSGFAEAEAVARWAEVVILVLGEHRELSGEAASRASVELPGVQLALAWRLLALGRPVVVVLMNGRPLAIPELAASAPAIVEAWFLGTEMGHAVADVLLGKASPGGRLPVSFPRATGQEPLYYNHKPTGRPPRAEEKYTSKYVDVPWTPLYPFGYGLTYTTFAYDSLRLSRRRLGLDDTLEVVVSVTNTGRRRGEEVVQLYVRDEVASVTRPVKELKGFARVELAPGETKAVQFRLPVRALRFWGLEGGWVVEPGWFTLWVGPSSAEGLQARFEVVSP
notes: recombinant in E. coli BL21 C43 (pJOE3075), C-terminal His-tag, no signal peptide predicted; locus tag is that of the type strain DSM 4252T homolog, gene cloned from DSM 4253
B4: RmBgl3C (Rhodothermus marinus DSM 4252) (protein)
chain: CQKAEQQPPSTAAFPPLSSYDEQARALLEQMTLEEKIGQMIQAEQAFLQDPYDIQTYHLGSILSGGNSDPADGNSLEAWTEVYDSLQAIALRTRLGIPLLYGIDAVHGHSNVEGAVVFPHHIGLGATRDPDLVERVYRITAIEMRATGIHWNFAPCIAVARDERWGRTYESFSEDPELVATLGAAAVRGLQNGGLNNPLAVLATAKHFAGDGGTAFGTGGPQGALLDQGDVRLDEATFRRIHVRPYIDAIQAGVGSIMVSYSSWNGVKMTGHKYMLTDVLKGELGFEGIVISDYNAIDQVHPDYKTAIEIAINAGIDMAMVPTRYREFFQLLKELVEEGRVPMERIDDAVLRILRVKFAMGLMDGPEHVFADRSLWAKFGSAEHRAVAREAVRKSLVLLKNENQTLPLAKDLGRIHVAGLHADNLGYQAGGWTIDWQGGSGDITEGTTILEAIRKAVAPGTEVTYSEDGSGAAGADVAIAVIGERPYAEFLGDRSDLSLDPDDVAVVRRLKEAGVPVVVILISGRPMIINDVLEMADAFIAAWLPGSEGDGVADVLFGDYAPTGKLPFSWPRSMDQIPINVGDEDYDPLFPFGYGLTY
B5: RmXyl3A (Rhodothermus marinus DSM 4252) (protein)
chain: QERPAYLDPTLPIEVRVEDLLGRMTLEEKVAQMLSMRQTKRLIVDEQNRFDPSRAPEWFKLGIGRIERPSEYFQTAREAAAFTNAIQRWVRENTRLGIPVIFHEEALHGLRAAEATSYPQAIALASTWNPALVERVYGRIAREVRARGVHQVLAPVVDVGREPRWGRIEETFGEDPYLVAEMGKAAVWGLQGRRVPPVGPGHVIATLKHMAGHGQPESGINVAPVFFGERHLREVFLYPFREAVEKAHALSVMASYNEIDGIPSHANAWMLRDVLRGEWGFRGVIVSDWHGIPQLITRHHVAENLEEAARLALQATVDVELPDYEAYATLVDQVRRGLIPELAVDEAVRRLLWAKFAVGLFDGEPYVDEAEASRVNASEEDRALALEAAREAIILLKNDGLLPLEAGRLDRVAVIGPHAGEVLLGGYSGRPRYTVSILEGLRERLRGEAEVLYAEGVRITEDSVFTDEPQPHLGGTWARQRNAAHRVVFTPPEANRSRIEEAVALARTSDVVVLVVGGNEQTAREAYAPYHLGDRLSLRLPGQQEELVKAVLATGVPVVLVVIGGRPYVITELVDRVGAIVWGWYLGQETGRAVAEVLLGDYNPAGRLPITIPRHEGQLPAYYSHKPSKELDYVDGTSRPLFPFGYGLSYTRFAYRSVRLEPDRVGGCGVVRVLVELENVGDRAGDEVVQVYVRDRVSSVARPVKELKGFRRVHLGPGERKVVEIELGPEAFAFYGLEMERVVEAGWFDVLVGGNSEELISVPLEITEGCNLGR
notes: locus tag is that of the type strain DSM 4252T homolog, gene cloned from DSM 4253

Key:
RmXyl3B = molecular target: T1, RmXyl3B (Rhodothermus marinus, UniProt D0MHL5); test: pNP release at […] nm; assay type: biochemical; conditions: 20 mM citrate phosphate pH 5.6, 60 °C
T1 construct: gene Rmar_1081; locus tag is that of the type strain DSM 4252T homolog, gene cloned from DSM 4253
T1 sequence (D0MHL5 entry or part of it): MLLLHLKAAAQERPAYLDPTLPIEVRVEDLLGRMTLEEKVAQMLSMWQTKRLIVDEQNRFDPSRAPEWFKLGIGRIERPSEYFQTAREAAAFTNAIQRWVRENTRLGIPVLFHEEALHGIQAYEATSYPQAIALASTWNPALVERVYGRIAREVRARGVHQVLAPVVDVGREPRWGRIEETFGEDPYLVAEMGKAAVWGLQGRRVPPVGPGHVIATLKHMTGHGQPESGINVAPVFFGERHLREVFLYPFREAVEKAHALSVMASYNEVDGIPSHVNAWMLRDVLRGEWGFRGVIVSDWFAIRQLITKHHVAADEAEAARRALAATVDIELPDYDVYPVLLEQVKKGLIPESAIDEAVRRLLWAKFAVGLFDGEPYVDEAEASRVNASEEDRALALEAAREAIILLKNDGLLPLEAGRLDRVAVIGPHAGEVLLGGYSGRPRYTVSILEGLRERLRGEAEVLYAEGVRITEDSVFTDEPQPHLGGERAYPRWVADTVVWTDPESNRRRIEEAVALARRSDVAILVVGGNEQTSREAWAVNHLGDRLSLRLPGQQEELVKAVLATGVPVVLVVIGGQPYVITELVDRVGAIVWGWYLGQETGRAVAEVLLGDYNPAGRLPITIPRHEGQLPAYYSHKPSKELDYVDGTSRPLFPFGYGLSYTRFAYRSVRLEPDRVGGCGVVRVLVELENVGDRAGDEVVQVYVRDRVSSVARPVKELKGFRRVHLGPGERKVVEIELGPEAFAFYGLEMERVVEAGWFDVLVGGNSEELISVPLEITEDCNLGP

purified protein [1] = substrate: CC(=O)N[C@H]1[C@H](Oc2ccc([N+](=O)[O-])cc2)O[C@H](CO)[C@@H](O)[C@@H]1O; test: purified protein; assay type: biochemical, Rhodothermus marinus; conditions: 20 mM sodium phosphate buffer, 60 °C
purified protein [2] = substrate: O=[N+]([O-])c1ccc(O[C@@H]2O[C@H](CO)[C@@H](O)[C@H](O)[C@H]2O)cc1; test: purified protein; conditions: 20 mM citrate phosphate pH 5.6, 60 °C
purified protein [3] = substrate: O=[N+]([O-])c1ccc(O[C@@H]2OC[C@@H](O)[C@H](O)[C@H]2O)cc1; test: purified protein; assay type: biochemical, Rhodothermus marinus; conditions: 20 mM citrate phosphate pH 5.6, 60 °C

Row | Km (RmXyl3B) | Molecule | Km (purified protein [1]) | kcat (purified protein [1]) | kcat/Km (purified protein [1]) | Km (purified protein [2]) | kcat (purified protein [2]) | kcat/Km (purified protein [2]) | Km (purified protein [3]) | kcat (purified protein [3]) | kcat/Km (purified protein [3])
1 | 1600 ± 400 µM | O=[N+]([O-])c1ccc(O[C@@H]2O[C@H](CO)[C@@H](O)[C@H](O)[C@H]2O)cc1 [pNP-β-Glc] |  |  |  |  |  |  |  |  | 
2 | 300 µM | O=[N+]([O-])c1ccc(O[C@@H]2OC[C@@H](O)[C@H](O)[C@H]2O)cc1 [pNP-β-Xyl] |  |  |  |  |  |  |  |  | 
3 |  | B1 | 100 ± 0 µM | 102 ± 3 s⁻¹ | 1.31e+06 ± 50300 M⁻¹ s⁻¹ |  |  |  |  |  | 
4 |  | B2 |  |  |  | 100 ± 0 µM | 49.5 s⁻¹ | 511000 M⁻¹ s⁻¹ | 1200 ± 100 µM | 65.8 ± 0.4 s⁻¹ | 56200 ± 700 M⁻¹ s⁻¹
5 |  | B3 |  |  |  | 100 ± 0 µM | 79.9 s⁻¹ | 755000 M⁻¹ s⁻¹ | 11800 ± 1000 µM | 140.8 ± 0.6 s⁻¹ | 12000 M⁻¹ s⁻¹
6 |  | B4 |  |  |  | 1600 ± 900 µM | 67.2 s⁻¹ | 42900 M⁻¹ s⁻¹ |  |  | 
7 |  | B5 |  |  |  | 6500 ± 800 µM | 29.2 s⁻¹ | 4500 M⁻¹ s⁻¹ | 400 ± 0 µM | 50.1 ± 1.9 s⁻¹ | 140000 ± 15700 M⁻¹ s⁻¹
